What was measured:
[1] = biological target: T1, PUF60 (short isoform PUF60S, HEK-293E-derived) (Homo sapiens, UniProt Q9UHX1-2 1-542); test: EMSA; with U2AF65/35; PUF60 binding enhanced, U2AF:RNA complex decreases; 25 mM Tris pH 7.5, 25 mM NaCl, 1 mM EDTA, 0.1 mg/ml tRNA, 0.5 mg/ml BSA, ~0.2 nM RNA, 60 min room temperature (6% native gel in cold room); footprints same plus 1 U/ml RNasin, 30 min, then 2.6 mg/ml tRNA with RNase 5 min; conditions: protein: recombinant; label: 32P; single strand
[2] = biological target: T1, PUF60 (short isoform PUF60S, …); test: EMSA; PUF60 alone; 25 mM Tris pH 7.5, 25 mM NaCl, 1 mM EDTA, 0.1 mg/ml tRNA, 0.5 mg/ml BSA, ~0.2 nM RNA, 60 min room temperature (6% native gel in cold room); footprints same plus 1 U/ml RNasin, 30 min, then 2.6 mg/ml tRNA with RNase 5 min; conditions: protein: recombinant; label: 32P; single strand
U2AF65 (in U2AF65/35 …) = biological target: U2AF65 (in U2AF65/35 heterodimer);U2AF35 (in U2AF65/35 heterodimer) (Homo sapiens;Homo sapiens, UniProt P26368;Q01081 1-475;1-240, |); test: EMSA; U2AF65/35 alone; 25 mM Tris pH 7.5, 25 mM NaCl, 1 mM EDTA, 0.1 mg/ml tRNA, 0.5 mg/ml BSA, ~0.2 nM RNA, 60 min room temperature (6% native gel in cold room); footprints same plus 1 U/ml RNasin, 30 min, then 2.6 mg/ml tRNA with RNase 5 min; conditions: protein: recombinant;recombinant; tags: ;; copies: 1;1; label: 32P; single strand
Chain of U2AF65 (in U2AF65/35 heterodimer);U2AF35 (in U2AF65/35 heterodimer) (P26368 whole entry, chain 1 of 2): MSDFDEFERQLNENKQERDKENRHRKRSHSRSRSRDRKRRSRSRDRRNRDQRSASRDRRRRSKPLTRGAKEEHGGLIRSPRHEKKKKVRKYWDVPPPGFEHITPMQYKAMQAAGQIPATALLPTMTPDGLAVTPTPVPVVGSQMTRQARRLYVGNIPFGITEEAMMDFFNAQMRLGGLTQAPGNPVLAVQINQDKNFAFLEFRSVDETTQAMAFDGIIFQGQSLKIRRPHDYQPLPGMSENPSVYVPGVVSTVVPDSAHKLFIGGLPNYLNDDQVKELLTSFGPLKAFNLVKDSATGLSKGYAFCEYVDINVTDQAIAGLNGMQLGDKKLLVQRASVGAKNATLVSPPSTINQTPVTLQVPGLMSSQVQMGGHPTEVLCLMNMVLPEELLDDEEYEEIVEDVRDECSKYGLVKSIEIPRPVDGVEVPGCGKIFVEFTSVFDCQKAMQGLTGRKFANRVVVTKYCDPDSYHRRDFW
Chain of U2AF65 (in U2AF65/35 heterodimer);U2AF35 (in U2AF65/35 heterodimer) (Q01081 whole entry, chain 2 of 2): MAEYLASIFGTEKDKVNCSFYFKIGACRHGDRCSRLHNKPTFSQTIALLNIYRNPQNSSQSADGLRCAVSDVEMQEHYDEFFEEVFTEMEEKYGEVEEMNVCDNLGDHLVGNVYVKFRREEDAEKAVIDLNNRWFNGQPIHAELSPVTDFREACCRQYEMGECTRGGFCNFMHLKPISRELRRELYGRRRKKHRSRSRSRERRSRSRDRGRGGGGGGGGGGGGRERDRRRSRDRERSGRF

Measured: binding result

T1 sequence (Q9UHX1 other isoform, or with tags, fused parts or gaps): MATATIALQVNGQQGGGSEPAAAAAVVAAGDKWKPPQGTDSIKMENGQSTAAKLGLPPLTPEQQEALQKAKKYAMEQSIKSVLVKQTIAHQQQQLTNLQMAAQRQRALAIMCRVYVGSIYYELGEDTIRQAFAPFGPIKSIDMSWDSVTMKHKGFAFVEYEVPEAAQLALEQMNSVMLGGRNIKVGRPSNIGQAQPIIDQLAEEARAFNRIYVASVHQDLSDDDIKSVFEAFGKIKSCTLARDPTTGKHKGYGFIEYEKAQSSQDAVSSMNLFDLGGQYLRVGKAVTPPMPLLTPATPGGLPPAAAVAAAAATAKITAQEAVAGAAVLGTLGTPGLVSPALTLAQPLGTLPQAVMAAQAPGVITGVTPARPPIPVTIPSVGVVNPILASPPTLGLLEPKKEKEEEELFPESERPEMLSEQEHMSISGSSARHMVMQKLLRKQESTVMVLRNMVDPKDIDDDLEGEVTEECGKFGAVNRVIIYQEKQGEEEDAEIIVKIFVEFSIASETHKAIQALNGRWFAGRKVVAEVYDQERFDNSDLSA

UUCGUGCUGACCCUGUCCCUUUUUUUUCCACAGC (ssRNA) [AdML 3' splice-site RNA, 34 nt]
binds: all assays above

Reference: article PMC1888729, “Control of Pre-mRNA Splicing by the General Splicing Factors PUF60 and U2AF65”
